Source: patent publication US20210338733A1 (University of Pennsylvania, published 2021)

Target: T1, TnMUC1 in whole cell lysates of DU145 prostate cancer cells (single band of >200 kDa) (UniProt P15941 24-1255, limits assumed, Tn glycoform of MUC1 (aberrant O-glycosylation); sites not stated)
T1 construct: mature; also called mature TnMUC1
Assay: Western blot on whole cell lysates of the prostate cancer cell line DU145

T1 sequence (P15941 24-1255 limits assumed): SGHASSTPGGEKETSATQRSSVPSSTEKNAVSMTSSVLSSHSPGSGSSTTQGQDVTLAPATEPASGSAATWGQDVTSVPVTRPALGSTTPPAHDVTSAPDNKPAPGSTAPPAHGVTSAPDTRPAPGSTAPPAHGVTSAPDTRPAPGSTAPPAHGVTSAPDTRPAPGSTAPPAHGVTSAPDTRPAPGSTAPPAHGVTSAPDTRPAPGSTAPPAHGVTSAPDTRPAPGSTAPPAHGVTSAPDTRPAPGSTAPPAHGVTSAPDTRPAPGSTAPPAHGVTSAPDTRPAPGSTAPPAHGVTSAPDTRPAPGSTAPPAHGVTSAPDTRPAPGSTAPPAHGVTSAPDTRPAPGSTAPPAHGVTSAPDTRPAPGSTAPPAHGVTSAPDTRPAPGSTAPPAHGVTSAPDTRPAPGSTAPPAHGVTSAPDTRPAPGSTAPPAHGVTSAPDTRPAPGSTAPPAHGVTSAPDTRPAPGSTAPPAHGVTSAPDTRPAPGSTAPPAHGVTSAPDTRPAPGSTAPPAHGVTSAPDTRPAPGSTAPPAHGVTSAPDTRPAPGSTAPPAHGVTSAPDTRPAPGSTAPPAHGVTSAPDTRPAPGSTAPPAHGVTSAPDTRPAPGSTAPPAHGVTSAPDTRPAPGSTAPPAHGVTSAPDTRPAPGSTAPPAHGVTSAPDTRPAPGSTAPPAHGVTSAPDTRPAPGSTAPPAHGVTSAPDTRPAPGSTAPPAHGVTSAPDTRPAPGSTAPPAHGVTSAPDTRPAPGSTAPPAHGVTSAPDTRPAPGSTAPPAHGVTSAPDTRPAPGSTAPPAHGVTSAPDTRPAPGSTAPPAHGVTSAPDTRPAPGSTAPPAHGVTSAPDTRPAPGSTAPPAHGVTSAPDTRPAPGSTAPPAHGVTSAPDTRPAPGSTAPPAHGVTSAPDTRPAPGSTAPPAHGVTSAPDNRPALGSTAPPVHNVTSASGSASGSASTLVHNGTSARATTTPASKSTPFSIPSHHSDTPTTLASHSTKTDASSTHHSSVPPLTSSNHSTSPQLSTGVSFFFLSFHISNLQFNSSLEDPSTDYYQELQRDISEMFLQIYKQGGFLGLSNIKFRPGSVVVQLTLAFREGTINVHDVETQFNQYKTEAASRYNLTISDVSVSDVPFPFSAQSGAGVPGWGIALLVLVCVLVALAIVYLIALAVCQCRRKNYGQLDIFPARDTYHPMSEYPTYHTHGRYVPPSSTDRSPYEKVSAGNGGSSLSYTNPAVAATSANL

B1: Anti-TnMUC1 murine monoclonal antibody clone 5E5 (antibody, V domains shown)
VH: QVQLQQSDAELVKPGSSVKISCKASGYTFTDHAIHWVKQKPEQGLEWIGHFSPGNTDIKYNDKFKGKATLTVDRSSSTAYMQLNSLTSEDSAVYFCKTSTFFFDYWGQGTTLTVSS
VL: ELVMTQSPSSLTVTAGEKVTMICKSSQSLLNSGDQKNYLTWYQQKPGQPPKLLIFWASTRESGVPDRFTGSGSGTDFTLTISSVQAEDLAVYYCQNDYSYPLTFGAGTKLELK
notes: also called 5E5 mAb; mAb 5E5
- binding result: binds
